T1: OsCYCOS2 aa 170-310 (Oryza sativa, UniProt A2YH60 170-310)
T1 construct: bait, Gal4 DBD fusion; also called PN20257
T1 sequence: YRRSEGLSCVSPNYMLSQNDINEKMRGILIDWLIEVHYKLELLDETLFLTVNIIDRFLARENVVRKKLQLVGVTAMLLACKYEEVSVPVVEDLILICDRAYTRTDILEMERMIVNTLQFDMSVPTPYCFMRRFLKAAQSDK

T2: OsMADS45 aa 50-198 (Oryza sativa, UniProt P0C5B0 50-198)
T2 construct: bait, Gal4 DBD fusion; also called PN20231; O. sativa MADS box protein MADS45
T2 sequence: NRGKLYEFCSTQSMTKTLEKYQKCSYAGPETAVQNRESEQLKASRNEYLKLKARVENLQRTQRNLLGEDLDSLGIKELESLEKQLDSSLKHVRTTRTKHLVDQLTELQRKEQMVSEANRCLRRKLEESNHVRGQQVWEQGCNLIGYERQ

T3: OsHOS59 aa 1-100 (Oryza sativa, UniProt Q94LW4 113-212)
T3 construct: bait, Gal4 DBD fusion; also called PN20559; O. sativa Homeobox Protein HOS59, Fragment
T3 sequence: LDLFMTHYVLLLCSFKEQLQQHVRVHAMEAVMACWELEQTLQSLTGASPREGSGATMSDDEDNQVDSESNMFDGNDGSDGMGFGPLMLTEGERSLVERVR

B1: OsPN23484 aa 77-233 (other)
chain: AETATSEAMLMIERLQREKAAAQMEARQFRRYAEGREDREREVQEELASLSDLAASYHSRLQSHGIDPDSFSDDGEEEQHDEEDGEEVEQIDTAALQTDGSSGGDSIGGMQVKAMVDDDEEEQFTPVEKEFEYTVDVRCASSTTKVSGAVVVGEFMG
notes: prey, AD fusion
B2: PN20815 aa 1-134 (other)
chain: MDKELKERDEKYVELDTKFQRLHKRAKQRIQDIQKEKDDMEARFNEINQKAEQASSLQSAAQQELERARQQASEALRSMDAERQQLRTVNSKLRTNLDEARVALEARNNVLEKLRQSMFEKEQLLEQTQASLQS
notes: prey, AD fusion; also called Hypothetical Protein PN20815 Similar to A. thaliana Myosin Heavy Chain, Fragment
B3: OsPN30854 aa 100-169 (other)
chain: RIDVVNRQLKPLGKTCVKKEKEYKEILEAYNEKNKEKALLVNRLIELVSESERMRMKKLEELNKTVDSLY
notes: prey, AD fusion; also called Novel Protein PN30854, unknown
B4: OsPN29942 aa 1-159 (other)
chain: EHESDEEKNEVDTSNEIKEIVIDDMEPKVFQAGFLFMYRDNLVGDDELSASSSDCSIFDTLAGKLLAAADRYELPRLRLLCESYLCKHISVNSVATTLALADRHHAMELKSVCLKFAAENLSAVIRTDGFDYLKDNCPALQSEILRTVAGCEEECSSGG
notes: prey, AD fusion
B5: OsPN23484 aa 64-212 (other)
chain: RELQAELDAERASAETATSEAMLMIERLQREKAAAQMEARQFRRYAEGREDREREVQEELASLSDLAASYHSRLQSHGIDPDSFSDDGEEEQHDEEDGEEVEQIDTAALQTDGSSGGDSIGGMQVKAMVDDDEEEQFTPVEKEFEYTVD
notes: prey, AD fusion
B6: PN26210 aa 422-646 (other)
chain: IAELTAKAEEQQKLILKLEDDILKGYSSTDRRTSLLNDWDLQEIGSNEVAEGTDPRHAPQDQDQSSMLKVICNQRDRFRTRLRETEEELRRLKEKYEMLVVELEKTKADNVQLYGKIRYVQDYSHEKIVSRGPKKYAEDVESGSSDVETKYKKMYEDDINPFAAFSKKEKDQRYKELGLRDKITLSSGRFLLGNKYARTFIFFYTIGLHLLVFTLLYRMSALSYL
notes: prey, AD fusion; also called O. sativa Putative CCAAT Displacement Protein
B7: PN26210 aa 364-613 (other)
chain: VGYNSIEAEDWELATNGEEMSKLEALLLDKNRKMEHELTQLKVKISEKSNLLEEAEKKIAELTAKAEEQQKLILKLEDDILKGYSSTDRRTSLLNDWDLQEIGSNEVAEGTDPRHAPQDQDQSSMLKVICNQRDRFRTRLRETEEELRRLKEKYEMLVVELEKTKADNVQLYGKIRYVQDYSHEKIVSRGPKKYAEDVESGSSDVETKYKKMYEDDINPFAAFSKKEKDQRYKELGLRDKITLSSGRFLL
notes: prey, AD fusion; also called Putative CCAAT Displacement Protein
B8: OsPN23484 aa 90-245 (other)
chain: RLQREKAAAQMEARQFRRYAEGREDREREVQEELASLSDLAASYHSRLQSHGIDPDSFSDDGEEEQHDEEDGEEVEQIDTAALQTDGSSGGDSIGGMQVKAMVDDDEEEQFTPVEKEFEYTVDVRCASSTTKVSGAVVVGEFMGEGNAAAGGLYAR
notes: prey, AD fusion
B9: OsMADS5 aa 113-225 (other)
chain: LLGEDLVPLSLKELEQLENQIEISLMNIRSSKNQQLLDQVFELKRKEQQLQDANKDLKRKIQETSGENMLHISCQDVGPSGHASEANQEFLHHAICDPSLHIGYQAYMDHLNQ
notes: prey, AD fusion; also called PN20770; O. sativa MADS box protein MADS5
B10: OsFDRMADS6 aa 115-246 (other)
chain: EDLESLNLKELQQLEQQLENSLKHIRSRKSQLMLESINELQRKEKSLQEENKVLQKELVEKQKVQKQQVQWDQTQPQTSSSSSSFMMREALPTTNISNYPAAAGERIEDVAAGQPQHVRIGLPPWMLSHING
notes: prey, AD fusion; also called PN19766; O. sativa MADS-box protein FDRMADS6
B11: OsMADS18 aa 57-224 (other)
chain: FSSHSSMEGILERYQRYSFDERAVLEPNTEDQENWGDEYGILKSKLDALQKSQRQLLGEQLDTLTTKELQQLEHQLEYSLKHIRSKKNQLLFESISELQKKEKSLKNQNNVLQKLMETEKEKNNAIINTNREEQNGATPSTSSPTPVTAPDPIPTTNNSQSQPRGSGE
notes: prey, AD fusion; also called PN20912; O. sativa MADS box protein MADS18
B12: OsMADS18 aa 82-154 (other)
chain: EPNTEDQENWGDEYGILKSKLDALQKSQRQLLGEQLDTLTTKELQQLEHQLEYSLKHIRSKKNQLLFESISEL
notes: prey, AD fusion; also called PN20912
B13: OsFDRMADS8 aa 104-233 (other)
chain: LDESRRKILGENLEGCSIEELRGLEMKLEKSLHNIRLKKTELLERQIAKLKEKERTLLKDNENLRGKHRNLEAAALVANHMTTTTAPAAWPRDVPMTSSTAGAADAMDVETDLYIGLPGTERSSNRSETG
notes: prey, AD fusion; also called PN20698; O. sativa MADS-box protein FDRMADS8
B14: OsFDRMADS8 aa 63-186 (other)
chain: LQKTIDRYKAYTKDHVNNKTIQQDIQQVKDDTLGLAKKLEALDESRRKILGENLEGCSIEELRGLEMKLEKSLHNIRLKKTELLERQIAKLKEKERTLLKDNENLRGKHRNLEAAALVANHMTT
notes: prey, AD fusion; also called PN20698
B15: OsMADS3 aa 48-177 (other)
chain: FSSRGRLYEYANNSVKSTVERYKKANSDTSNSGTVAEVNAQHYQQESSKLRQQISSLQNANSRTIVGDSINTMSLRDLKQVENRLEKGIAKIRARKNELLYAEVEYMQKREVELQNDNMYLRSKVVENER
notes: prey, AD fusion; also called PN20700; O. sativa MADS box protein MADS3
B16: OsMADS13 aa 75-263 (other)
chain: ACGSTSGAPLIEVNAQQYYQQESAKLRHQIQMLQNTNKHLVGDNVSNLSLKELKQLESRLEKGIAKIRARKNELLASEINYMAKREIELQNDNMDLRTKIAEEEQQLQQVTVARSAAMELQAAAAAQQQQQNPFAVAAAQLDMKCFFPLNLFEAAAQVQAVAAQRQQIIPTELNLGYHHHLAIPGATAA
notes: prey, AD fusion; also called PN20668; O. sativa MADS box protein MADS13
B17: OsMADS15 aa 92-237 (other)
chain: CHEYRKLKAKIETIQKCHKHLMGEDHESLNLKELQQLEQQLESSLKHIISRKSHLMLESISELQKKERSLQEENKALQKELVERQKNVRGQQQVGQWDQTQVQAQAQAQPQAQTSSSSSSMLRDQQALLPPQNICYPPVMMGERND
notes: prey, AD fusion; also called PN20842; O. sativa MADS box protein MADS15
B18: OsAAK00972 aa 236-350 (other)
chain: AEGGSKGEGVSSNPQESTANAAPEISAAEKQELQNKMAKLMAMLDEVDRKYKHYYHQMQIVVSSFDMVAGSGAAKPYTAVALQTISKHFRCLKDAINDQINVIRKKLGEEESSSG
notes: prey, AD fusion; also called PN23253; O. sativa Putative Homeodomain Protein OsAAK00972
B19: OsPN23830 aa 4-207 (other)
chain: LEDFQASVEALPAMLQRNYSLMRELDKSLQGVQTGNEQRCQQEIEDIKHGLESGSITYDPAKLKFSDEAIEEQKHCVRIADEKVALASQTYDLVDAHIQQLDQFMRKLEELRQEKEAATTAAAAAAAAAASVATGTPVAATVTASAGTSTADNTPKGGRSSERGRGGRKKTAKVPTEQPAPAIDLELPVDPNEPTYCLCNQVSY
notes: prey, AD fusion; also called Novel Protein PN23830, Similar to A. thaliana Putative PHD-Finger Protein
B20: OsAAG13633 aa 799-951 (other)
chain: IRSLKFEYDNLKILMSTNDSEKHNLASQVLKLRRALESREDVKQNGVKSDEDNHHATSKRIKHDDGTTGSCNVLPSTNRHNANGDCNGHDRRDAAHDQSVKELEILKERNTALEEELKELHGRYSEISLKFAEVEGERQQLVMTVRALKNSLR
notes: prey, AD fusion; also called PN25701; O. sativa Putative Myosin
B21: OsPN24092 aa 797-948 (other)
chain: SIKDQVQTYLEEINTLKSSKNEKEEMIERLQSEIRSLKFEYDNLKILMSTNDSEKHNLASQVLKLRRALESREDVKQNGVKSDEDNHHATSKRIKHDDGTTGSRNVLPSTNRHNANGDCNGHDRRDAAHDQSVKELEILKERNTALEEELKE
notes: prey, AD fusion; also called Novel Protein PN24092, Similar to O. sativa Putative Myosin
B22: OsPN23829 aa 2-226 (other)
chain: ALSVEKTSSGREYKVKDLSQADFGRLEIELAEVEMPGLMACRAEFGPSQPFKGARISGSLHMTIQTAVLIETLTALGAEVRWCSCNIFSTQDHAAAAIARDSAAVFAWKGETLEEYWWCTERCLDWGVGGGPDLIVDDGGDATLLIHEGVKAEEEFEKSGKVPDPESTDNAEFKIVLTIIRDGLKSDPSKYRKMKERLVGVSEETTTGVKRLYQMQETGALLFPA
notes: prey, AD fusion; also called Novel Protein PN23829 Putative S-Adenosyl-L-Homocysteine Hydrolase
B23: OsBAB07943 aa 525-767 (other)
chain: LADSLNKARSLIHPPVKKPSKLGENLTSLAAVVENEHKRLLARKSIIEKRKEDLERQILEKEKEEEKKRLSVLKKSAEDERIRLLNDVKLREQERIRRQLVEKEKIEAEELLQKQIKEIAKRGGKKPVLQGEVTKEAVMELAMNEQFKERQEMEKKLQKTGKQMDYLERAKRQEEAPLIEQAFQKRLEVEKILHEQEQLREIELSKQHHAGDLQEKNRLSRMLEHKNIFQERIVQRREAEFSR
notes: prey, AD fusion; also called PN23832; O. sativa Putative Eukaryotic Translation Initiation Factor 3 Large Subunit
B24: OsPN23830 aa 1-169 (other)
chain: MGFLEDFQASVEALPAMLQRNYSLMRELDKSLQGVQTGNEQRCQQEIEDIKHGLESGSITYDPAKLKFSDEAIEEQKHCVRIADEKVALASQTYDLVDAHIQQLDQFMRKLEELRQEKEAATTAAAAAAAAAASVATGTPVAATVTASAGTSTADNTPKGGRSSERGRG
notes: prey, AD fusion
B25: OsPN23388 aa 229-331 (other)
chain: LKTAKEKGLQRLVHLSSDLARQVATILENAQTFQENRKIGDVPSVNSNSSGVPSTQGEIDEIHQERQKFVEVAKKNVRDRRARRMQSCEVPIHPITPVKLMES
notes: prey, AD fusion; also called Novel Protein PN23388

Molecular target: T1, OsCYCOS2 aa 170-310
Experiment: Y2H; output trait library
How it was run: (§1)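 A rice prey library, either the input trait or the output trait library, was screened with a bait clone encoding a defined amino-acid fragment of a rice protein. Screening used an automated, high-throughput yeast two-hybrid assay provided by Myriad Genetics Inc. (Salt Lake City, Utah). Retrieved prey clones had their encoding sequences compared by BLAST against databases so the interacting proteins could be identified.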

binding result | Binder
binds | B1
binds | B2
binds | B3
binds | B4
binds | B5
binds | B6
binds | B7
binds | B8

Molecular target: T2, OsMADS45 aa 50-198
Experiment: Y2H; output trait library
How it was run: as §1

binding result | Binder
binds | B9
binds | B10
binds | B11
binds | B12
binds | B13
binds | B14
binds | B15
binds | B16
binds | B17

Molecular target: T3, OsHOS59 aa 1-100
Experiment: Y2H; output trait library
How it was run: as §1

binding result | Binder
binds | B18
binds | B19
binds | B20
binds | B21
binds | B22
binds | B23
binds | B24
binds | B25
